Data on one substance can be found in article PMC2063917.

Experiment [1] addresses His6-TIP47(152-434) (UniProt O60664). Briefly: pull-down.
In experiment [2] the target is NH2-terminal His6-tagged p40 (UniProt Q7Z6M1). Briefly: pull-down.
Sequence of UniProt Q7Z6M1 (Q7Z6M1 whole entry): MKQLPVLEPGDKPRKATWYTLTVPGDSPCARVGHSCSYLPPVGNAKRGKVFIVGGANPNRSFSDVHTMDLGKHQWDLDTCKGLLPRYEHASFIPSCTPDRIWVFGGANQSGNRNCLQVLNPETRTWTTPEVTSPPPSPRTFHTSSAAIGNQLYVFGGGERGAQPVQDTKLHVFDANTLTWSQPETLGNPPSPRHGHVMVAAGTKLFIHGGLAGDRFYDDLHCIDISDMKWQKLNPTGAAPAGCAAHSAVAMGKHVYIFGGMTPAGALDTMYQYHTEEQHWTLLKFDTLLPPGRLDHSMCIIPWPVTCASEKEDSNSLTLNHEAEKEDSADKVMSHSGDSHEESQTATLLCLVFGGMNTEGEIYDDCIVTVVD

Sequence of UniProt O60664 (O60664 152-434): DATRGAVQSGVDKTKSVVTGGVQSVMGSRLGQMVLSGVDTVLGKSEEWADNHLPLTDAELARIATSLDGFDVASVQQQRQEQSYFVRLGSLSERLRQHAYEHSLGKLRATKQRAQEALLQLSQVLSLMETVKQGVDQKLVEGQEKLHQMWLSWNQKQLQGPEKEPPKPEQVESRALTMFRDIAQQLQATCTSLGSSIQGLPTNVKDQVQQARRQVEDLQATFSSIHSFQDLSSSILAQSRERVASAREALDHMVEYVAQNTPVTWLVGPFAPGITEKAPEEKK

As for “Rab9-CLLL, untagged (from UniProt P24408 1-201) (natural protein)”, the pmol Rab9 bound (taken as 100% binding) in experiment [1] came out at 1.5 pmol; in experiment [2], 3.9 pmol.
